Experimental data published in the supplement of paper PMC9170038.

System: MS2 coat protein
Assay: apparent KD of MS2 coat protein; designed switch direction (-1 OFF switch, 1 ON switch): 1; higher = weaker reporter binding
Method in brief: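 On Illumina chips, designed RNA switches with common flanks were made by stalled E. coli RNA polymerase. Titrations with SNAP-549-labelled MS2 coat protein, doubling from 0.7 or 1.5 nM to 3 µM, were done with no input, with 200 uM small-molecule ligand, or with an oligonucleotide input. Apparent KD is the median per design over clusters, from curve fits of normalised cluster fluorescence.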

[1] = Eterna round: R95, input ligand: FMN 200 uM
[2] = Eterna round: R95, input ligand: microRNA oligo, concentration not stated
[3] = Eterna round: R95, input ligand: none
[4] = input ligand: microRNA oligo, concentration not stated

Sequence	apparent KD of MS2 coat protein [1]	apparent KD of MS2 coat protein [2]	apparent KD of MS2 coat protein [3]	apparent KD of MS2 coat protein (input ligand: FMN 200 uM)	apparent KD of MS2 coat protein [4]	apparent KD of MS2 coat protein (input ligand: none)
UAGAGAGGAAGCGAGGAUAUCGUGUGAGGAACAUGAGGAUCACCCAUGUGUGAUGUUGAGAGAGACGAGAAGGCGCAGGAGAUUA [JR_SS2_Sub083] (puzzle: Same State 2)	87.5 nM	150 nM	140 nM	–	–	–
UAGUGCAUUAGAGGAUAUUCUUACGACACGAGUAAGACAUGAGGAUCACCCAUGUCGUGGCAUGGGAAGAAGGCUGAUGUGCUA [Omei SS(NG)2 Bv7] (Eterna round: R96, puzzle: Same State NG 2)	–	–	–	14.4 nM	11.1 nM	34.7 nM
UAGUGCAUUAGAGGAUAUUCUUACGACACGAGUAAGACAUGAGGAUCACCCAUGUUGUGGCAUGGGAAGAAGGCUGAUGUGCUA [Omei SS(NG)2 Bv9] (Eterna round: R96, puzzle: Same State NG 2)	–	–	–	–	45.3 nM	–
UAUAAACAUGAGGAUCACCCAUGUAAUAAUAUGGGAGGAUAUCAGAUUUAAUUUAAUUUAUGAGAAGGCCUAAUAU [Mat - Same State 1 - Mod of Eli - D66] (Eterna round: R96, puzzle: Same State 1)	–	–	–	–	427 nM	–
UAUAAACAUGAGGAUCACCCAUGUAAUAAUAUGGGAGGAUAUCAGAUUUAAUUUAAUUUAUGAGAAGGCCUAAUAU [Mat - Same State 1 - Mod of Eli - D66] (puzzle: Same State 1)	34.3 nM	491 nM	825 nM	–	–	–
UAUGACUUACAAGGAUAUUAAUAACAUGAGGAUCACCCAUGUGGCUGUGAGAGUUAGAUAAGCUAUAAGAAGGUGUGUGUGUUU [JR_SSNG2_Sub094] (Eterna round: R96, puzzle: Same State NG 2)	–	–	–	62.7 nM	133 nM	173 nM
UCAACUUUUUUUAGUGUGUUGCCAGGUUAACAUGAGGAUCACCCAUGUAAAGUAUAGUGGGAUUAAGUUCGUCUUAA [JR_SHM208A_Sub072] (puzzle: Sensor for hsa-mir-208a)	77.2 nM	83.6 nM	93.9 nM	–	–	–
UCAAGCGUUUGGCUCGUCUUAUGUUUUGUACAUGAGGAUCACCCAUGUUUUGUACGAUCCAGUUAGAUGGUAUUUUG [JR_SHM208A_Sub038] (puzzle: Sensor for hsa-mir-208a)	39.8 nM	121 nM	54.6 nM	–	–	–
UCGAGCGUACUUGCAGACAUGAGGAUCACCCAUGUAAAUGGGAAGGAUAUGGUACCGUUUCGGUACCAGAAGGUCCUAAGUGUU [salish99_SSNG3_r04_303] (Eterna round: R96, puzzle: Same State NG 3)	–	–	–	616 nM	146 nM	493 nM
UCGAGCGUACUUGCAGACAUGAGGAUCACCCAUGUAAAUGGGAAGGAUAUGGUACCGUUUCGGUACCAGAAGGUCCUACGUGCU [salish99_SSNG3_r04_305] (Eterna round: R96, puzzle: Same State NG 3)	–	–	–	325 nM	48.8 nM	144 nM
UCGGGCGUACUUGCUGACAUGAGGAUCACCCAUGUCCUUGCGCAGGAUAUGGUUCCGUUUCGGUUCCAGAAGGUCCUGGCUGCU [salish99_SSNG3_r04_319] (Eterna round: R96, puzzle: Same State NG 3)	–	–	–	30.5 nM	19.5 nM	33.2 nM
UCGUCGACACAAAUUCGACAACAUGAGGAUCACCCAUGUCCACAGGAUAUCGGCAGCUUAUGCUCCGAGAAGGGUGGUUAGAUU [Beage Mod] (Eterna round: R96, puzzle: Same State NG 3)	–	–	–	435 nM	664 nM	605 nM
UCUAUUGUGGUAGGAUAUCUAGGAUAUGGGAAGAGCUAAGCUUGGAAGUCACUUCACCCAGAAGGAGAGAAGGACCACACACUU [pwkr ssNG2 2FMN + F9.8] (Eterna round: R96, puzzle: Same State NG 2)	–	–	–	564 nM	121 nM	225 nM
UCUUGGUUUUUGCUCGUUUUUUGUGUUGAACAUGAGGAUCACCCAUGUAUUGUACGAUCCAAUUUAAUAAUGGUCCG [JMF 60] (puzzle: Sensor for hsa-mir-208a)	42.6 nM	33.6 nM	50.2 nM	–	–	–
UCUUGGUUUUUGCUCGUUUUUUGUGUUGAACAUGAGGAUCACCCAUGUAUUGUACGGUCCGGUUUAGUAAUGGUCCG [JMF 11] (puzzle: Sensor for hsa-mir-208a)	24.8 nM	15.1 nM	25 nM	–	–	–
UCUUGGUUUUUGCUCGUUUUUUGUGUUGAACAUGAGGAUCACCCAUGUAUUGUACGGUCCGGUUUAGUGAUGAUCCG [JMF 73] (puzzle: Sensor for hsa-mir-208a)	39.1 nM	31.3 nM	45.6 nM	–	–	–

Sequence	apparent KD of MS2 coat protein [1]	apparent KD of MS2 coat protein [2]	apparent KD of MS2 coat protein [3]	apparent KD of MS2 coat protein (input ligand: FMN 200 uM)	apparent KD of MS2 coat protein [4]	apparent KD of MS2 coat protein (input ligand: none)
UCUUGGUUUUUGCUCGUUUUUUGUGUUGAACAUGAGGAUCACCCAUGUAUUGUACGGUCCGGUUUGGUAAUGGUCCA [JMF 9] (puzzle: Sensor for hsa-mir-208a)	55.7 nM	41.8 nM	63.6 nM	–	–	–
UGAAGAUCCAUAGGAUAUCCGACACAUGAGGAUCACCCAUGUCAACCAAACGCAGCUUCGGCCGUGGAGAAGGAUGGAGCUGUG [Eternabot solution 3] (Eterna round: R96, puzzle: Same State NG 2)	–	–	–	72.4 nM	41.5 nM	76.4 nM
UGAAUAGUGAUAGGAUAUACAUGAGGAAUCCUCGUAGAAGGAUCAUAACAUGAGGAUCACCCAUGUAGCGCUCAGAAGAGCGCA [Mat - Same State NG 1 - JL mod - D54] (Eterna round: R96, puzzle: Same State NG 1)	–	–	–	31.5 nM	37.1 nM	81.3 nM
UGAAUGAUGUUAGGAUAUACAUGAGGAAUCCUCGUAGAAGGAACAUGACAUGAGGAUCACCCAUGUAGCGCUCCGUAGAGCGCA [JL SSNG1 1.19] (Eterna round: R96, puzzle: Same State NG 1)	–	–	–	210 nM	30.4 nM	146 nM
UGAGCCGGCACUGAGGAUAUUCAUAAUAAAACAUGAGGAUCACCCAUGUAGGCCAGAAGGCCUUGGGAGAAGGCAGGUCGGCUCA [Mat - Same State 2 - Mod of UCT - D71] (Eterna round: R96, puzzle: Same State 2)	–	–	–	15.7 nM	147 nM	191 nM
UGAGCCGGCACUGAGGAUAUUCAUAAUAAAACAUGAGGAUCACCCAUGUAGGCCAGAAGGCCUUGGGAGAAGGCAGGUCGGCUCA [Mat - Same State 2 - Mod of UCT - D71] (puzzle: Same State 2)	16.7 nM	134 nM	247 nM	–	–	–
UGAGCCGGCACUGAGGAUAUUCAUAAUAAAACAUGAGGAUCACCCAUGUAGGCCAGAAGGCCUUGGGAGAAGGCAGGUCGGCUCU [Mat - Same State 2 - Mod of UCT - D70] (puzzle: Same State 2)	13.8 nM	142 nM	292 nM	–	–	–
UGGAUCUAGGCUUGCCUGGGUCCAUGUUGACAUGAGGAUCACCCAUGUGUAUUUUUUUUGCUUUUUGUUUGUCAACA [JL A Humble Attempt mod 4] (puzzle: Sensor for hsa-mir-208a)	31.5 nM	16.7 nM	34 nM	–	–	–
UGGCUCAGACGAGGAUAUAUGCGAUCACAUGAGGAUCACCCAUGUCUCGAGCUUCGGCUCGAGGCAUAGAAGGUGUCUGAGCCA [SSNG2/4-C2] (Eterna round: R96, puzzle: Same State NG 2)	–	–	–	40.9 nM	83.1 nM	145 nM
UGGCUCAGACGAGGAUAUAUGUGAUCACAUGAGGAUCACCCAUGUCUCGAGCUUCGGCUCGAGACAUAGAAGGUGUCUGAGCCU [SSNG2/3-C3] (Eterna round: R96, puzzle: Same State NG 2)	–	–	–	53.9 nM	12.2 nM	6.64 nM
UGGCUCAGACGAGGAUAUAUGUGGUCACAUGAGGAUCACCCAUGUCUCGAGCUUCGGCUCGAGGCAUAGAAGGUGUCUGAGCCU [SSNG2/5-C3] (Eterna round: R96, puzzle: Same State NG 2)	–	–	–	132 nM	33.5 nM	23.1 nM
UGGCUCAGAGCAGGAUAUAUGCGAUCACAUGAGGAUCACCCAUGUCUCGAGCUUCGGCUCGAGGCAUAGAAGGGCUCUGAGCCU [SSNG2/4-B3] (Eterna round: R96, puzzle: Same State NG 2)	–	–	–	14.9 nM	32.6 nM	45.5 nM
UGGUACAUGGGAGGAUAUCAUGUAGAAACAUGAGGAUCACCCAUGUGGAUGGAGACAUCGGAGAUUGAGAAGGCCCAUGUACCU [JL SSNG1 3.56] (Eterna round: R96, puzzle: Same State NG 2)	–	–	–	15.6 nM	20.9 nM	25.2 nM
UGGUACAUGGGAGGAUAUGGGCAUGAGACAUGAGGAUCACCCAUGUAUUAAAAGCCGAGAGGCAUCUAGAAGGCCCAUGUACCU [JL SSNG1 3.89] (Eterna round: R96, puzzle: Same State NG 2)	–	–	–	15.8 nM	80.2 nM	158 nM
UGUACCUUCACAGGAUAUCAUGCGAAAAUUGCGUGAGAAGGGUGAAUACUGUCUUUCUAAGAGUACAUGAGGAUCACCCAUGUA [SameState NG1 #60] (Eterna round: R96, puzzle: Same State NG 1)	–	–	–	50 nM	56.1 nM	73.8 nM
